Measurements as given in US20100087625.
Numbering of substitutions follows the chain as printed.

Columns and labels:
[1] = tested on: T1, S1S2proBMP-2 (human proBMP-2 with S1 site REKR replaced by TNGIEGRALDP and S2 site RISR mutated to AISR; construct IND2372)
T1 sequence: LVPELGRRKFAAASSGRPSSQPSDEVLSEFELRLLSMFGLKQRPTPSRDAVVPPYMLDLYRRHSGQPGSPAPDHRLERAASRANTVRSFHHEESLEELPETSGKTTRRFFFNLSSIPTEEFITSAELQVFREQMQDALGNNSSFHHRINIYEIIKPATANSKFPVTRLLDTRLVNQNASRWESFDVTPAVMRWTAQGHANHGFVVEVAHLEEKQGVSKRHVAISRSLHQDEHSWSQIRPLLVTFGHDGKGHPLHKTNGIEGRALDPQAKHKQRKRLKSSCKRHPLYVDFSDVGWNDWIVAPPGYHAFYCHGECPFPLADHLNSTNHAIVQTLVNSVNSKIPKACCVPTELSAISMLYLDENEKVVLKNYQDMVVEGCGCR

[2] = tested on: T2, S1proBMP-2 (human proBMP-2 with the S1 furin cleavage site REKR replaced by TNGIEGRALDP; constructs IND2340 and IND2341)
T2 sequence: T1 sequence with A222R

[3] = tested on: T3, recombinant human proBMP-2 (wild type, produced by CHO-BMP-2 cells)
T3 sequence: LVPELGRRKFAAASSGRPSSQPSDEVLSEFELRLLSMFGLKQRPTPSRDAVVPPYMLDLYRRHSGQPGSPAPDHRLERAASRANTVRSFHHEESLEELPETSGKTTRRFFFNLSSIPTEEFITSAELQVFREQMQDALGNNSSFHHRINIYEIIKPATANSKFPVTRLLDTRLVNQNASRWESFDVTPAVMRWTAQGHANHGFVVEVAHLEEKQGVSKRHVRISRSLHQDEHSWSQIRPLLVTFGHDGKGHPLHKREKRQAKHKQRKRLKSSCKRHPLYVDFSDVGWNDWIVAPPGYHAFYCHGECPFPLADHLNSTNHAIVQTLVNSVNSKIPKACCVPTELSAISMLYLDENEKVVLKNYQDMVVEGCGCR

Substance | Western blot after digestion with Factor Xa [1] | Western blot after digestion with Factor Xa [2] | Western blot after in vitro digestion with furin [3]
Factor Xa (Restriction Protease Factor Xa Cleavage and Removal Kit, Roche Applied Science Cat #1 644 777) | Cleavage of mutant BMPs S1 proBMP and S1 S2proBMP-2 by Factor Xa produced a mature BMP-2 that remained a dimer under non-reducing conditions with an apparent molecular weight of 30-32 KD | Cleavage of mutant BMPs S1 proBMP and S1 S2proBMP-2 by Factor Xa produced a mature BMP-2 that remained a dimer under non-reducing conditions with an apparent molecular weight of 30-32 KD | –
furin (Sigma) | – | – | the purified CHO proBMP-2 monomers migrated at approximately 55 kDa were cleaved after 1 hr incubation with furin
